The target of assay [1] is T1, human G protein-coupled receptor class C group 5 member D (GPRC5D) (human, UniProt Q9NZD1 1-345).
T1 construct: also called hGPRC5D
The experiment in a line: scFv phage clones from panning on hGPRC5D-aAPCs, binding to MM cell lines MM.1S and NCI-H929 (endogenous GPRC5D).

For assay [2], the target named is T1, human G protein-coupled receptor class …. The experiment in a line: ELISA-based epitope mapping on overlapping 15-mer peptides of the GPRC5D extracellular domains linked to scaffolds (linear, conformational, discontinuous). For orientation: ELISA stands for enzyme-linked immunosorbent assay.
For assay [3] the target is unchanged. In words: cell-cell interaction by automated flow cytometry: HEK293 cells with the non-signaling GPRC5D-203 long spacer CAR (mCherry) against HEK293 cells each expressing one human GPCR (GFP); Z-score. As to the method:
In parallel, the cDNA of individual receptors from a library of human GPCRs, in a vector expressing cytoplasmic GFP, was transiently expressed in the HEK293 cells. […] Binding was determined using an automated flow cytometric assay that detects cell-cell interaction.
(In general: A flow cytometer gives signals particle by particle.)

The next assay deals with T2, EGFR (human, UniProt P00533).
T2 construct: expressed on the surface of HEK293 cells in a cell microarray spot
The experiment in a line: cell microarray of HEK293 cells expressing the indicated surface protein, probed with scFv-mIgG2a Fc. On the procedure:
(§1) Cell microarrays were assessed for binding by automated fluorescent microscopy with a fluorescently labeled anti-mIgG2a secondary antibody.

The target in the next assay is T3, CD86 (human, UniProt P42081).
T3 construct: expressed on the surface of HEK293 cells in a cell microarray spot; target of the positive control
T3 sequence (single chain, looked up): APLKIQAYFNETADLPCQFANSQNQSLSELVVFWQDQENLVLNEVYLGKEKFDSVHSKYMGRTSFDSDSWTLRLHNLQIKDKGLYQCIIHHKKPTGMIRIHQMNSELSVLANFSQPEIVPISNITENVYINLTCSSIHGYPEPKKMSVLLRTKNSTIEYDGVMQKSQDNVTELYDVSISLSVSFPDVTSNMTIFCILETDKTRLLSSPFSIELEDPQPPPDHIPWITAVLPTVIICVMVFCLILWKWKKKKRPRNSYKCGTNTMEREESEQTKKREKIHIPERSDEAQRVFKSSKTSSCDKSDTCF
The assay is described as above. As to the method: as §1

A further assay addresses T4, SLC38A2 (human, UniProt Q96QD8).
T4 construct: expressed on the surface of HEK293 cells in a cell microarray spot
T4 sequence (single chain, looked up): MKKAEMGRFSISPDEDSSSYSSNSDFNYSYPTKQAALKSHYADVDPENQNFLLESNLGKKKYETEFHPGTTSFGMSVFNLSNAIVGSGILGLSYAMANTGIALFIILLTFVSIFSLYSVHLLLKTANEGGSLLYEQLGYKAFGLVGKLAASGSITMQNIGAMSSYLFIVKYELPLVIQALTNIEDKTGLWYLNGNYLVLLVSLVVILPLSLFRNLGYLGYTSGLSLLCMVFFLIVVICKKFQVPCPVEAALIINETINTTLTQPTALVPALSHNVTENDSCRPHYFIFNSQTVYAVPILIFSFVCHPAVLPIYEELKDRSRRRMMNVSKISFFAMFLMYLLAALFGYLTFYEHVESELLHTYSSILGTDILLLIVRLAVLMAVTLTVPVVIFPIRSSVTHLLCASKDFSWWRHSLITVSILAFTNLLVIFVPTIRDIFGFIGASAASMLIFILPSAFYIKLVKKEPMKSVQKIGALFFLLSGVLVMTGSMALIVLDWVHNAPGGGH
Described as above. As to the method: as §1

Assay [4] deals with cynomolgus GPRC5D (cynomolgus). In words: cell-based or functional assay.

T1 sequence (Q9NZD1 whole entry): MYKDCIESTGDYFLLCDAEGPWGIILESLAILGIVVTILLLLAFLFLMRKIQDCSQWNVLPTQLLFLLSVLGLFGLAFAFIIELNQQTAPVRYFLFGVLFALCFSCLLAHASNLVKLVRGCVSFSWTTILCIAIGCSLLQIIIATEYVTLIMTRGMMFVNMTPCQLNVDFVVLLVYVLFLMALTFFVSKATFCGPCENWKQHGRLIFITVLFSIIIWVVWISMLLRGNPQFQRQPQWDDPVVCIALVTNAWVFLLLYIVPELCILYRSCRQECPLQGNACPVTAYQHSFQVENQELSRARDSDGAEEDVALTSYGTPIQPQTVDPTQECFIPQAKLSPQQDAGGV

B1: GPRC5D-204 scFv clone (scFv, V domains shown)
VH: EVQLVESGGGLVQPGGSLRLSCAASGFTFSNYAMSWVRQAPGKGLEWVSAISGSGNTYYADSVKGRFTISRDNSKNTLYLQMNSLRAEDTAVYYCARGSVRYTDIWGQGTLVTVSS
VL: NFMLTQPHSVSESPGKTVSISCTRTSGAIAGAYVQWFQQRPGSAPTTVIYDDNKRPSGVPDRFSGSIDKSSNSASLTISGLKTEDEADYYCQSYDYDSSNVLFGGGTKLTVLG
notes: Human scFv from a phage display library
Regarding B1, the binding result in assay [1] is reported as “binds”.

B2: GPRC5D-203 scFv clone (scFv, V domains shown)
VH: QVQLVESGGGLVHPGGSLRLSCAASGFTFRSHSMNWVRQAPGKGLEWVSSISSDSTYTYYADSVKGRFTISRDNAKNSLYLQMNSLRAEDTAVYYCARSGGQWKYYDYWGQGTLVTVSS
VL: SSELTQDPAVSVALGQTVRITCQGDSLRSYYASWYQQKPGQAPVLVIYGKNNRPSGIPDRFSGSSSGNTASLTITGAQAEDEADYYCNSRDSSGNPPVVFGGGTKLTVLG
notes: as for B1
With B2, the binding result in assay [2] is recorded as “binds”.

B3: GPRC5D-201 scFv clone (scFv, V domains shown)
VH: QMQLVQSGAEVKKPGASVKVSCKASGYTFNRYAITWVRQAPGQGLEWMGWISAYNGNSHYAQKLQGRVTMTTDTSTGTAYMELRRLRSDDTAVYYCARMAYDSWGQGTLVTVSS
VL: QSVLTQPASVSGSPGQSLTISCTGTSNDVGAYKYVSWYQQYPGKAPKLILYDVFKRPSGVSNRFSGSKSDNTASLTISGLQAEDEADYYCFSLTSSNTYVFGTGTKVTVLG
notes: as for B1
With B3, the binding result in assay [2] was “binds”.

B4: GPRC5D-205 scFv clone (scFv, V domains shown)
VH: EVQLVESGGGLIQPGGSLRLSCAASGFTFSNYAMNWVRQAPGKGLEWVSTINGRGSSTIYADSVKGRFTISRDNSKNTLYLQMNSLRAEDTATYYCARYISRGLGDSWGQGTLVTV
VL: QSVVTQPPSMSAAPGQQVTISCSGGNSNIERNYVSWYLQLPGTAPKLVIFDNDRRPSGIPDRFSGSKSGTSATLGITGLQTGDEADYYCGTWDSSLRGWVFGGGTKLTVLG
notes: as for B1
Turning to B4, in assay [2], the binding result is on record as “binds”.

B5: GPRC5D-203 VL/VH, long spacer CAR but lacking the signaling domains (other)
chain: SSELTQDPAVSVALGQTVRITCQGDSLRSYYASWYQQKPGQAPVLVIYGKNNRPSGIPDRFSGSSSGNTASLTITGAQAEDEADYYCNSRDSSGNPPVVFGGGTKLTVLGSRGGGGSGGGGSGGGGSLEMAQVQLVESGGGLVHPGGSLRLSCAASGFTFRSHSMNWVRQAPGKGLEWVSSISSDSTYTYYADSVKGRFTISRDNAKNSLYLQMNSLRAEDTAVYYCARSGGQWKYYDYWGQGTLVTVSSESKYGPPCPPCPAPPVAGPSVFLFPPKPKDTLMISRTPEVTCVVVDVSQEDPEVQFNWYVDGVEVHNAKTKPREEQFQSTYRVVSVLTVLHQDWLNGKEYKCKVSNKGLPSSIEKTISKAKGQPREPQVYTLPPSQEEMTKNQVSLTCLVKGFYPSDIAVEWESNGQPENNYKTTPPVLDSDGSFFLYSRLTVDKSRWQEGNVFSCSVMHEALHNHYTQKSLSLSLGKMFWVLVVVGGVLACYSLLVTVAFIIFWV
notes: Transiently expressed on HEK293 cells from a cell surface expression vector with cytoplasmic mCherry; also called non-signaling CAR
B5: in assay [3], the binding result is given as “binds”.

B6: GPRC5D-200 scFv clone (scFv, V domains shown)
VH: EVQLVESGGAFVQPGGSLRLSCAASGFTFSSYAMTWVRQAPGKGLEWVSTISGRGRSTFYADSVKGRFTISRDNSKNTLYLQMNSLRAEDTAVYYCARYYHAGAFDLWGQGTLVTVSS
VL: QSVVTQPASVSGSPGQSITISCTGTSSDVGGYNYVSWYQQHPGKAPKLMIYDVSKRPSGVSNRFSGSKSGNTASLTISGLQAEDEADYYCSSYTSSSTLVFGGGTKLTVLG
notes: Human scFv from a B cell-derived phage display library
As to B6, the binding result in assay [1] is recorded as “binds”.

B7: GPRC5D-202 scFv clone (scFv, V domains shown)
VH: EVQLVESGGGLVKPGGSLRLSCAASGFTFSDYYMSWIRQAPGKGLEWVSYISSSGSTIYYADSVKGRFTISRDNAKNSLYLQMNSLRAEDTAVYYCARGYGKAYDQWGQGTLVTVSS
VL: QSVLTQPPSASGTPGQRVTISCSGSRSNVGGNYVFWYQQVPGATPKLLIYRSNQRPSGVPDRFAGSKSGSSASLAISGLRSEDEADYYCATWDDSLSGFVFGTGTKVTVLG
notes: as for B1
Take B7: the binding result in assay [2] is “binds”.

B8: anti-GPRC5D-203 VL/VH scFv (SEQ ID NO: 8) fused to an mIgG2a Fc (Fc fusion, not shown: a dimerising Fc or GST; small tags and cut ends)
scFv: SSELTQDPAVSVALGQTVRITCQGDSLRSYYASWYQQKPGQAPVLVIYGKNNRPSGIPDRFSGSSSGNTASLTITGAQAEDEADYYCNSRDSSGNPPVVFGGGTKLTVLGSRGGGGSGGGGSGGGGSLEMAQVQLVESGGGLVHPGGSLRLSCAASGFTFRSHSMNWVRQAPGKGLEWVSSISSDSTYTYYADSVKGRFTISRDNAKNSLYLQMNSLRAEDTAVYYCARSGGQWKYYDYWGQGTLVTVSS
notes: also called scFv-Fc
As for B8, the binding result with EGFR, with CD86 and in the assay with SLC38A2 was “no binding” throughout.

B9: GPRC5D-206 scFv clone (scFv, V domains shown)
VH: QVQLVQSGAEVKKPGASVKVSCKASGYTFTSYYMHWVRQAPGQGLEWMGIINPSGGSTRYAQKFQGRVTMTRDTSTSTVYMELSSLRSEDTAVYYCARGSSRWGGWTGDYWGQGTLVTVSS
VL: QSALTQPASVSGSPGQSITISCTGTSSDVGGYNFVSWYQQHPGKAPKVMIYDVSKRPSGISNRFSGSKSGNTASLTISGLQVEDEAEYYCSSYTSTRTVIFAGGTKVTVLG
notes: as for B1
As to B9, the binding result in assay [1] is listed as “binds”.

B10: GPRC5D-202 VH/VL - long (anti-GPRC5D CAR) (protein)
chain: EVQLVESGGGLVKPGGSLRLSCAASGFTFSDYYMSWIRQAPGKGLEWVSYISSSGSTIYYADSVKGRFTISRDNAKNSLYLQMNSLRAEDTAVYYCARGYGKAYDQWGQGTLVTVSSGSRGGGGSGGGGSGGGGSLEMAQSVLTQPPSASGTPGQRVTISCSGSRSNVGGNYVFWYQQVPGATPKLLIYRSNQRPSGVPDRFAGSKSGSSASLAISGLRSEDEADYYCATWDDSLSGFVFGTGTKVTVLESKYGPPCPPCPAPPVAGPSVFLFPPKPKDTLMISRTPEVTCVVVDVSQEDPEVQFNWYVDGVEVHNAKTKPREEQFQSTYRVVSVLTVLHQDWLNGKEYKCKVSNKGLPSSIEKTISKAKGQPREPQVYTLPPSQEEMTKNQVSLTCLVKGFYPSDIAVEWESNGQPENNYKTTPPVLDSDGSFFLYSRLTVDKSRWQEGNVFSCSVMHEALHNHYTQKSLSLSLGKMFWVLVVVGGVLACYSLLVTVAFIIFWVKRGRKKLLYIFKQPFMRPVQTTQEEDGCSCRFPEEEEGGCELRVKFSRSADAPAYQQGQNQLYNELNLGRREEYDVLDKRRGRDPEMGGKPRRKNPQEGLYNELQKDKMAEAYSEIGMKGERRRGKGHDGLYQGLSTATKDTYDALHMQALPPR
In the case of B10, in assay [4], the interferon gamma release by CAR-transduced NHP T cells was 10000 pg/mL.

Source of the values: US20210393689A1 (JUNO THERAPEUTICS, published 2021).
